# B1: GpH7-A48/GpH7-B3-01-15Y/GpL16-k0 (antibody, human IgG1, kappa)
# heavy 1: QVQLVQSGAEVKKPGASVTVSCKASGYTFTDYEMHWIRQPPGEGLEWIGAIDPKTGDTAYSESFQDRVTLTADKSTSTAYMELSSLTSEDTAVYYCTRFYSYTYWGQGTLVTVSSASTKGPSVFPLAPSSKSTSGGTAALGCLVKDYFPEPVTVSWNSGALTSGVHTFPAVLQSSGLYSLSSVVTVPSSSLGTQTYICNVNHKPSNTKVDKKVEPKSCDKTHTCPPCPAPELLGGPSVFLFPPKPKDTLMISRTPEVTCVVVDVSHEDPEVKFNWYVDGVEVHNAKTKPREEQYNSTYRVVSVLTVLHQDWLNGKEYKCKVSNKALRAPIEKTISKAKGQPREPQVYTLPPSRKELTKNQVSLTCLVKGFYPSDIAVEWESNGQPENNYKTTPPVLDSDGSFFLYSKLTVDKSRWQQGNVFSCSVMHEALHNRYTQKSLSLSP
# heavy 2: not shown
# light: DIVMTQSPLSLPVTPGEPASISCQASESLVHSNRNTYLHWYLQKPGQSPQLLIYKVSNRFSGVPDRFSGSGSGTDFTLKISRVEAEDVGVYYCSQNTHVPPTFGQGTKVEIERTVAAPSVFIFPPSDEQLKSGTASVVCLLNNFYPREAKVQWKVDNALQSGNSQESVTEQDSKDSTYSLSSTLTLSKADYEKHKVYACEVTHQGLSSPVTKSFNRGEC
# notes: H1 P329R; H2 L234Y
# B2: GpH7-Kn033/GpH7-Hl033/GpL16-k0 (antibody, human IgG1, kappa)
# heavy 1: not shown
# heavy 2: not shown
# light: DIVMTQSPLSLPVTPGEPASISCQASESLVHSNRNTYLHWYLQKPGQSPQLLIYKVSNRFSGVPDRFSGSGSGTDFTLKISRVEAEDVGVYYCSQNTHVPPTFGQGTKVEIERTVAAPSVFIFPPSDEQLKSGTASVVCLLNNFYPREAKVQWKVDNALQSGNSQESVTEQDSKDSTYSLSSTLTLSKADYEKHKVYACEVTHQGLSSPVTKSFNRGEC
# notes: Anti-glypican-3 IgG1 with knobs-into-holes alone; also called Kn033/Hl033
# B3: GpH7-A48/GpH7-B3-03-20W/GpL16-k0 (antibody, human IgG1, kappa)
# heavy 1: QVQLVQSGAEVKKPGASVTVSCKASGYTFTDYEMHWIRQPPGEGLEWIGAIDPKTGDTAYSESFQDRVTLTADKSTSTAYMELSSLTSEDTAVYYCTRFYSYTYWGQGTLVTVSSASTKGPSVFPLAPSSKSTSGGTAALGCLVKDYFPEPVTVSWNSGALTSGVHTFPAVLQSSGLYSLSSVVTVPSSSLGTQTYICNVNHKPSNTKVDKKVEPKSCDKTHTCPPCPAPELLGGPSVFLFPPKPKDTLMISRTPEVTCVVVDVSHEDPEVKFNWYVDGVEVHNAKTKPREEQYNSTYRVVSVLTVLHQDWLNGKEYKCKVSNKALRAPIEKTISKAKGQPREPQVYTLPPSRKELTKNQVSLTCLVKGFYPSDIAVEWESNGQPENNYKTTPPVLDSDGSFFLYSKLTVDKSRWQQGNVFSCSVMHEALHNRYTQKSLSLSP
# heavy 2: not shown
# light: DIVMTQSPLSLPVTPGEPASISCQASESLVHSNRNTYLHWYLQKPGQSPQLLIYKVSNRFSGVPDRFSGSGSGTDFTLKISRVEAEDVGVYYCSQNTHVPPTFGQGTKVEIERTVAAPSVFIFPPSDEQLKSGTASVVCLLNNFYPREAKVQWKVDNALQSGNSQESVTEQDSKDSTYSLSSTLTLSKADYEKHKVYACEVTHQGLSSPVTKSFNRGEC
# notes: H1 P329R; H2 G236W
# B4: GpH7-A48/GpH7-B3-15-02A/GpL16-k0 (antibody, human IgG1, kappa)
# heavy 1: QVQLVQSGAEVKKPGASVTVSCKASGYTFTDYEMHWIRQPPGEGLEWIGAIDPKTGDTAYSESFQDRVTLTADKSTSTAYMELSSLTSEDTAVYYCTRFYSYTYWGQGTLVTVSSASTKGPSVFPLAPSSKSTSGGTAALGCLVKDYFPEPVTVSWNSGALTSGVHTFPAVLQSSGLYSLSSVVTVPSSSLGTQTYICNVNHKPSNTKVDKKVEPKSCDKTHTCPPCPAPELLGGPSVFLFPPKPKDTLMISRTPEVTCVVVDVSHEDPEVKFNWYVDGVEVHNAKTKPREEQYNSTYRVVSVLTVLHQDWLNGKEYKCKVSNKALRAPIEKTISKAKGQPREPQVYTLPPSRKELTKNQVSLTCLVKGFYPSDIAVEWESNGQPENNYKTTPPVLDSDGSFFLYSKLTVDKSRWQQGNVFSCSVMHEALHNRYTQKSLSLSP
# heavy 2: not shown
# light: DIVMTQSPLSLPVTPGEPASISCQASESLVHSNRNTYLHWYLQKPGQSPQLLIYKVSNRFSGVPDRFSGSGSGTDFTLKISRVEAEDVGVYYCSQNTHVPPTFGQGTKVEIERTVAAPSVFIFPPSDEQLKSGTASVVCLLNNFYPREAKVQWKVDNALQSGNSQESVTEQDSKDSTYSLSSTLTLSKADYEKHKVYACEVTHQGLSSPVTKSFNRGEC
# notes: H1 P329R; H2 S298A
# Columns and labels:
# [1] = target: T1, FcγRIIIa extracellular domain with C-terminal His tag (human, UniProt P08637 17-208); test: SPR relative binding; GpH7-A5/GpH7-B3/GpL16-k0 = 100
# T1 construct: extracellular domain; also called FcgRIIIa; 3a; not shown: His tag at the C terminus
# T1 sequence (P08637 17-208): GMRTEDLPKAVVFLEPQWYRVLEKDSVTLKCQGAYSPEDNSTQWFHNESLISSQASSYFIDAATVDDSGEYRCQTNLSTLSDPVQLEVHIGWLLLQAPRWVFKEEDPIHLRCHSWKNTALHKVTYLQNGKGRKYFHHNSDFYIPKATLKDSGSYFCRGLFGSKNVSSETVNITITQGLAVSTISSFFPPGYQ
# Source text: First, variants of interest were expressed and prepared according to the method described in Reference Example 1, using GpH7-A5 as an H chain; and GpL16-k0 as the L chain; and as the other H chain, GpH7-HA5 (SEQ ID NO: 19), GpH7-HA6 (SEQ ID NO: 20), and GpH7-HA11 (SEQ ID NO: 21) resulting from the introduction of L234Y, G236W, and S298A, respectively, into GpH7-B12 introduced with the alteration P329R. Furthermore, antibodies of interest were expressed and prepared according to the method described in Reference Example 1, using as an H chain, GpH7-A48 (SEQ ID NO: 16) resulting from the introduction of P329R into GpH7-A5; and GpL16-k0 as the L chain; and as the other H chain, GpH7-B3-01-15Y (SEQ ID NO: 22), GpH7-B3-03-20W (SEQ ID NO: 23), and GpH7-B3-15-02A (SEQ ID NO: 24) resulting from the introduction of L234Y, G236W, and S298A, respectively, into GpH7-B3. The antibodies thus obtained were named GpH7-A5/GpH7-HA5/GpL16-k0 (SEQ ID NOs: 3, 19, and 5, respectively), GpH7-A5/GpH7-HA6/GpL16-k0 (SEQ ID NOs: 3, 20, and 5, respectively), GpH7-A5/GpH7-HA11/GpL16-k0 (SEQ ID NOs: 3, 21, and 5, respectively), GpH7-A48/GpH7-B3-01-15Y/GpL16-k0 (SEQ ID NOs: 16, 22, and 5, respectively), GpH7-A48/GpH7-B3-03-20W/GpL16-k0 (SEQ ID NOs: 16, 23, and 5, respectively), and GpH7-A48/GpH7-B3-15-02A/GpL16-k0 (SEQ ID NO: 16, 24, and 5, respectively). The variants were compared to each other for the FcγRIIIa-binding activity according to the method described in Reference Example 2.
# (§1) Analysis of interaction between objective antibody and the FcγR was carried out using Biacore T100 (GE Healthcare). HBS-EP+ (GE Healthcare) was used as the running buffer, and the measurement temperature was set to 25° C. Chips produced by immobilizing the antigen peptide by the amine coupling method to a Series S Sencor Chip CM5 (GE Healthcare), or alternatively, chips produced by allowing preliminarily biotinylated antigen peptides to interact with and immobilize onto a Series S Sensor Chip SA (certified) (GE Healthcare) were used. Antibodies of interest were captured onto an antigen peptide-immobilized chip, and allowed to interact to each FcγR diluted with running buffer. To regenerate and repeatedly use the chip, the antibodies captured on the chip were washed off by reacting 10 mM glycine-HCl, pH 1.5.
# [2] = target: T2, FcγRIa extracellular domain with C-terminal His tag (human, UniProt P12314 16-292); test: SPR (Biacore T100), ratio of KD values
# T2 construct: extracellular domain; also called FcgRIa; FcgRI
# T2 sequence (P12314 16-292): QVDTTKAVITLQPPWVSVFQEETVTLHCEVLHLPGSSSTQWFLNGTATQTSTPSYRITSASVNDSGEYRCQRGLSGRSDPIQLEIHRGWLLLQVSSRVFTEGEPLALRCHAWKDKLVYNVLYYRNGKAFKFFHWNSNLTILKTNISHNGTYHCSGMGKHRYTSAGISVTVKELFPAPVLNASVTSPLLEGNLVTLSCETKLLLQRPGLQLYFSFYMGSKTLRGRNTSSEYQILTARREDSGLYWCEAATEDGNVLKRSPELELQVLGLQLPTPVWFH
# Protocol: (§2) These antibodies were assessed for the binding activity to each FcγR according to the method described in Reference Example 2.
# as §1
# (§3) The FcγR-binding activity of each antibody was assessed primarily using as an indicator the FcγR-binding activity and dissociation constant for FcγR.
# [3] = target: T3, FcγRIIa type H extracellular domain with C-terminal His tag (human, UniProt P12318 34-217); test: SPR (Biacore T100), ratio of KD values
# T3 construct: extracellular domain; also called FcgRIIa H; FcγRIIa H
# T3 sequence (looked up): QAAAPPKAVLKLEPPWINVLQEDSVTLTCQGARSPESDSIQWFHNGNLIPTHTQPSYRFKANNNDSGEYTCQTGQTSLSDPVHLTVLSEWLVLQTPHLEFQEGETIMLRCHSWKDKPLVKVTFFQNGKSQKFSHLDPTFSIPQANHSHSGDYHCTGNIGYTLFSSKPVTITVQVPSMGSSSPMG
# Protocol: as §2, §1, §3
# [4] = target: T4, FcγRIIa type R extracellular domain with C-terminal His tag (human, UniProt P12318 34-217); test: SPR (Biacore T100), ratio of KD values
# T4 construct: extracellular domain; also called FcgRIIa R; FcγRIIa R
# T4 sequence (looked up): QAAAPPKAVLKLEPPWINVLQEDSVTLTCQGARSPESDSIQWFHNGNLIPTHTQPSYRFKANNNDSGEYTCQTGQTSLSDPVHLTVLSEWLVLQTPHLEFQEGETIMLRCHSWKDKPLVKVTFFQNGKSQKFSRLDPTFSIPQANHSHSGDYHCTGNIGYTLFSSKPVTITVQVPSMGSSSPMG
# Protocol: as §2, §1, §3
# [5] = target: T5, FcγRIIb extracellular domain with C-terminal His tag (human, UniProt P31994 43-217); test: SPR (Biacore T100), ratio of KD values
# T5 construct: extracellular domain; also called FcgRIIb
# T5 sequence (looked up): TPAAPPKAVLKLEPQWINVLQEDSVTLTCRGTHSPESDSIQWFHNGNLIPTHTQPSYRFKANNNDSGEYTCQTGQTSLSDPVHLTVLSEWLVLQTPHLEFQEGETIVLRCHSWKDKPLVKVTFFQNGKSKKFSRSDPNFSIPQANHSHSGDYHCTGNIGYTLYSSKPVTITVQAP
# Protocol: as §2, §1, §3
# [6] = target: T6, FcγRIIIa type F extracellular domain with C-terminal His tag (human, UniProt P08637 17-208); test: SPR (Biacore T100), ratio of KD values
# T6 construct: extracellular domain; also called FcgRIIIa F; FcγRIIIa F
# T6 sequence (P08637 17-208): as the sequence (P08637 17-208) above
# Protocol: as §2, §1, §3
# [7] = target: T7, FcγRIIIa type V extracellular domain with C-terminal His tag (human, UniProt P08637 17-208); test: SPR (Biacore T100), ratio of KD values
# T7 construct: extracellular domain; also called FcgRIIIa V; FcγRIIIa V
# T7 sequence (P08637 17-208 F176V): as the sequence (P08637 17-208) above, with F160V counted along it
# Protocol: as §2, §1, §3
# [8] = target: T2, FcγRIa extracellular domain with …; test: SPR (Biacore T100), antibody captured on antigen-peptide chip, FcγR analyte, 1:1 Langmuir fit
# Protocol: as §2, §1, §3
# [9] = target: T3, FcγRIIa type H extracellular domain …; test: as above
# Protocol: as §2, §1, §3
# [10] = target: T4, FcγRIIa type R extracellular domain …; test: as above
# Protocol: as §2, §1, §3
# [11] = target: T5, FcγRIIb extracellular domain with …; test: as above
# Protocol: as §2, §1, §3
# [12] = target: T6, FcγRIIIa type F extracellular domain …; test: as above
# Protocol: as §2, §1, §3
# [13] = target: T7, FcγRIIIa type V extracellular domain …; test: as above
# Protocol: as §2, §1, §3
binder,measurement,setting,value
B1,FcγRIIIa BINDING ACTIVITY,[1],11 % of control
B2,KD ratio,[2],1 fold (KD of GpH7-Kn033/GpH7-Hl033/GpL16-k0 divided by KD of this antibody)
same,KD ratio,[3],1 fold (KD of GpH7-Kn033/GpH7-Hl033/GpL16-k0 divided by KD of this antibody)
same,KD ratio,[4],1 fold (KD of GpH7-Kn033/GpH7-Hl033/GpL16-k0 divided by KD of this antibody)
same,KD ratio,[5],1 fold (KD of GpH7-Kn033/GpH7-Hl033/GpL16-k0 divided by KD of this antibody)
same,KD ratio,[6],1 fold (KD of GpH7-Kn033/GpH7-Hl033/GpL16-k0 divided by KD of this antibody)
same,KD ratio,[7],1 fold (KD of GpH7-Kn033/GpH7-Hl033/GpL16-k0 divided by KD of this antibody)
same,Kd,[8],0.069 nM
same,Kd,[9],590 nM
same,Kd,[10],740 nM
same,Kd,[11],3.6 µM
same,Kd,[12],1600 nM
same,Kd,[13],220 nM
B3,FcγRIIIa BINDING ACTIVITY,[1],13 % of control
B4,FcγRIIIa BINDING ACTIVITY,[1],47 % of control

# — patent publication US20180155451A1 (published 2018)
